Laboratory results from paper PMC12268258.
Where two headings read alike, the source gives them in different places.

Columns and labels:
Assay in all cases: BLI
HB125scFv-2 D33H/E56H [1] = molecular target: HB125scFv-2 D33H/E56H
HB125scFv-2 D33H [2] = molecular target: HB125scFv-2 D33H
HB125scFv-2 E56H [3] = molecular target: HB125scFv-2 E56H
HB125scFv-2 N54H [4] = molecular target: HB125scFv-2 N54H
HB125scFv-2 T32H [5] = molecular target: HB125scFv-2 T32H
HB125scFv-2 Y242H [6] = molecular target: HB125scFv-2 Y242H
HB125scFv-2 D33H/E56H [7] = molecular target: HB125scFv-2 D33H/E56H; remark: listed apart in the source
HB125scFv-2 D33H [8] = molecular target: HB125scFv-2 D33H; remark: listed apart in the source
HB125scFv-2 E56H [9] = molecular target: HB125scFv-2 E56H; remark: listed apart in the source
HB125scFv-2 N54H [10] = molecular target: HB125scFv-2 N54H; remark: listed apart in the source
HB125scFv-2 T32H [11] = molecular target: HB125scFv-2 T32H; remark: listed apart in the source
HB125scFv-2 Y242H [12] = molecular target: HB125scFv-2 Y242H; remark: listed apart in the source
HB125scFv-2 T32H [13] = molecular target: HB125scFv-2 T32H; remark: listed apart in the source

Substance: human insulin (from UniProt P01308 90-110; P01308 25-54) (natural protein)
- Kd (HB125scFv-2 D33H/E56H [1]): 250 nM
- koff (HB125scFv-2 D33H/E56H [1]): 0.00557 s⁻¹
- kon (HB125scFv-2 D33H/E56H [1]): 23700 M⁻¹ s⁻¹
- Kd (HB125scFv-2 D33H [2]): 36 nM
- koff (HB125scFv-2 D33H [2]): 0.00176 s⁻¹
- kon (HB125scFv-2 D33H [2]): 60500 M⁻¹ s⁻¹
- Kd (HB125scFv-2 E56H [3]): 160 nM
- koff (HB125scFv-2 E56H [3]): 0.0058 s⁻¹
- kon (HB125scFv-2 E56H [3]): 43400 M⁻¹ s⁻¹
- Kd (HB125scFv-2 N54H [4]): 165 nM
- koff (HB125scFv-2 N54H [4]): 0.00341 s⁻¹
- kon (HB125scFv-2 N54H [4]): 26000 M⁻¹ s⁻¹
- Kd (HB125scFv-2 T32H [5]): 17.4 nM
- koff (HB125scFv-2 T32H [5]): 0.00166 s⁻¹
- kon (HB125scFv-2 T32H [5]): 89700 M⁻¹ s⁻¹
- Kd (HB125scFv-2 Y242H [6]): 478 nM
- koff (HB125scFv-2 Y242H [6]): 0.00854 s⁻¹
- kon (HB125scFv-2 Y242H [6]): 18800 M⁻¹ s⁻¹
- Kd (HB125scFv-2 D33H/E56H [7]): 426 nM
- koff (HB125scFv-2 D33H/E56H [7]): 0.0073 s⁻¹
- kon (HB125scFv-2 D33H/E56H [7]): 19100 M⁻¹ s⁻¹
- Kd (HB125scFv-2 D33H [8]): 51.7 nM
- koff (HB125scFv-2 D33H [8]): 0.00154 s⁻¹
- kon (HB125scFv-2 D33H [8]): 27800 M⁻¹ s⁻¹
- Kd (HB125scFv-2 E56H [9]): 548 nM
- koff (HB125scFv-2 E56H [9]): 0.00577 s⁻¹
- kon (HB125scFv-2 E56H [9]): 12700 M⁻¹ s⁻¹
- Kd (HB125scFv-2 N54H [10]): 206 nM
- koff (HB125scFv-2 N54H [10]): 0.00286 s⁻¹
- kon (HB125scFv-2 N54H [10]): 15700 M⁻¹ s⁻¹
- Kd (HB125scFv-2 T32H [11]): 146 nM
- koff (HB125scFv-2 T32H [11]): 0.00351 s⁻¹
- kon (HB125scFv-2 T32H [11]): 42900 M⁻¹ s⁻¹
- percent change of wavelength shift, association 0.5 μM → 1 μM (HB125scFv-2 T32H [11]): 57%
- percent change of wavelength shift, association 1 μM → 0.5 μM (HB125scFv-2 T32H [11]): 23%
- percent change of wavelength shift, association 1 μM → 2 μM (HB125scFv-2 T32H [11]): 49%
- percent change of wavelength shift, association 2 μM → 1 μM (HB125scFv-2 T32H [11]): 21%
- percent change of wavelength shift, average association (HB125scFv-2 T32H [11]): 37%
- percent change of wavelength shift, average dissociation (HB125scFv-2 T32H [11]): -21%
- percent change of wavelength shift, dissociation 0.5 μM → 0 μM (first) (HB125scFv-2 T32H [11]): -22%
- percent change of wavelength shift, dissociation 0.5 μM → 0 μM (second) (HB125scFv-2 T32H [11]): -17%
- percent change of wavelength shift, dissociation 1 μM → 0 μM (first) (HB125scFv-2 T32H [11]): -23%
- percent change of wavelength shift, dissociation 1 μM → 0 μM (second) (HB125scFv-2 T32H [11]): -22%
- percent change of wavelength shift, dissociation 2 μM → 0 μM (HB125scFv-2 T32H [11]): -20%
- Kd (HB125scFv-2 Y242H [12]): 1480 nM
- koff (HB125scFv-2 Y242H [12]): 0.012 s⁻¹
- kon (HB125scFv-2 Y242H [12]): 8040 M⁻¹ s⁻¹
- percent change of wavelength shift, association 0.5 μM → 1 μM (HB125scFv-2 T32H [13]): 31%
- percent change of wavelength shift, association 1 μM → 0.5 μM (HB125scFv-2 T32H [13]): 15%
- percent change of wavelength shift, association 1 μM → 2 μM (HB125scFv-2 T32H [13]): 39%
- percent change of wavelength shift, association 2 μM → 1 μM (HB125scFv-2 T32H [13]): 20%
- percent change of wavelength shift, average association (HB125scFv-2 T32H [13]): 26%
- percent change of wavelength shift, average dissociation (HB125scFv-2 T32H [13]): -17%
- percent change of wavelength shift, dissociation 0.5 μM → 0 μM (first) (HB125scFv-2 T32H [13]): -18%
- percent change of wavelength shift, dissociation 0.5 μM → 0 μM (second) (HB125scFv-2 T32H [13]): -11%
- percent change of wavelength shift, dissociation 1 μM → 0 μM (first) (HB125scFv-2 T32H [13]): -15%
- percent change of wavelength shift, dissociation 1 μM → 0 μM (second) (HB125scFv-2 T32H [13]): -18%
- percent change of wavelength shift, dissociation 2 μM → 0 μM (HB125scFv-2 T32H [13]): -21%
